Measurements reported in the DeepSol protein solubility set.

Experiment: soluble on expression in E. coli; label from the status in PepcDB or PDB records

Sequence | soluble on expression in E. coli
MGSDKIHHHHHHMAVVFPSKEWMEELYKKVNADEEYRRVAANWEGDYLCVVELDEEALRDFQNPKVLRGFLGMLDSIPKEKRERFRGTPSEKLLEALGLSLDSDLSDANVEEIAKKIAENPDKILEAAKGASLNIWMDFWHGDFRNIEVAAPGEHEDAKFKLIGPYAVFKQLVMGKADAITLVVSGKLKLQGDMGYMMRNMATVKKFTDLMASIPIET | not soluble
GSMPHIKGHEGDPCLRSSDCIDGFCCARHFWTKICKPVLHQGEVCTKQRKKGSHGLEIFQRCDCAKGLSCKVWKDATYSSKARLHVCQKI | soluble
MPATNDGPDDGAHLSKSEQTRALILETAMRLFQERGYDRTTMRAIAQEAGVSVGNAYYYFAGKEHLIQGFYDRIAAEHRAAVREVLARETDLEARLAGVLKVWLDIATPYHEFAVQFFKNAADPDSPLSPFSPESEHARVEAIGIHRAVLAGAKTKVPEELRDILPELMWLSQMGLVLYWIFDRTEGRERSYRLAERGARLTARGVVLARFRVLRPLVREVHELFTDFLPGMTKVMPDPAKKPTRDAGPQA | soluble
MKRAAFYTLGCKVNQYETEAISEMFEKAGYKIVDFEDEADVYVINTCTVTNLSDRKSRQMIRRAKRNNENSIVIVIGCYAQTAPEEVSKIEGVNLVVGTKDRSRILEYLKELETSGGRRNYVGDIMKTREFEELGVNVYKERTRAFIKIQEGCNQFCTYCIIPYARGPVRSRSEENILKEVSGLAHSGYKEVVLTGIHVASYGKDIKNTSLIDIIRKVHEIEGIERIRLGSIEPTTVTEEFVRAIKGMEKLCPQFHISLQSGCDSTLKRMNRKYTTKEYLRSVELLRENLKDVAVTTDVMVGFPGETDEEFNETCRFVEKVLFARMHVFKYSRRKGTPAASYPDQVAPQKKEERSRILIELASRMTLEYNKSFTGRVLPVLFEQEVKGKEGFMEGLTPNYIRVECKGDKDIEGQILNVLLREAKDDYIVGEIVN | soluble
HKCDITLQEIIKDLNSLTEQKTLCTELTVTDIFAASKNTTEKETFCRAATVLRQFYSHHEKDTRCLGATAQQFHRHKQLIRDLKRLDRNLWGLAGLNSCPVKEANQSTLENFLERLKTIMREKYSKCSS | soluble
MGSDKIHHHHHHMTEATKTDFSKLNVYQKLAYVRQKAPYIQKSKRGQQYSYVGSSDVLSALNTVINQVGLILKPEIVAHQVRESQDEVWKADKVKKEPVAKKRTTYFTELELMMTWINIHNPSEIVACSWYSQGVDIEGEKGVGKALTYAEKYFLLKFFNIATDDDDPDKYQKEQLKNTTITERQIDMLNASISRVAELAGQEFEAVKSLAINDSDLNPKKAFEEYSAYDYGVISKLLAKWINFYESRQKVQEDKK | not soluble
MASFRSTLALVNSAKLSLSTRTMASHPLAGLLGKLNHVAIATPDLKKSSEFYKGLGAKVSEAVPQPEHGVYTVFVELPNSKIELLHPFGEKSPIQAFLNKNKDGGMHHICIEVRDIHEAVSAVKTKGIRTLGEKPKIGAHGKEVMFLHPKDCGGVLIELEQE | not soluble
MKVLEYRFAIAPMFHFIANKSMEAGLHVCDGHAKQTVQLFMNDAVSEKGKKRIGAIQYEGSNDYTAKEPCMVNWRFERALLPDGLKQDLEAITAFRRDQNEGTAINPNAQSIAFKFEALTDAAKETIEAITAVLQKHARC | not soluble
MKSVIIVGAGIGGLCLAQGLAKAGIEFEVWEADAGPQVRGQGYRLRIDAMGQRALRQCLPPDLFELFRASCAVSGPARFVDPQLNPLPGRRPENWRENADAGEAGGDLSADRQVLRDILSHGLAPQIRWGRRARGFERGGDGIVVHCADGSEHGAALVVAADGLHSPLRRQWLPQAEPEAIGALNLYGKTPLDGIDPALLAGPTIVFADGWTLVVEPMRFRAAMSGLAARHAPDCRLSPTDDYVYWAMFGREACLGGSLSGEEDAAGWRRRIEAASGGLHPGLSDLLRRTAPEAVMGRAVRMAAGVPSWPPGRLTVLGDAIHAMSPAGGVGANTALADAAMLAVCLADGDVDRAVARYEADMRGRAERALVATRAGTERLLRRLLEHHHHHH | soluble
SLIMRYADSGLCGTVSQNMADARTRAESTDLSETSPDE | soluble
MGSDKIHHHHHHMHQGAHLDLDDGYQGDISNIGFIIGAKGVAVIDTGGSRQVGEALLSAIREITDLPVLYVINTHIHPDHIFGNAAFKQEHPVFIGHAKLPNAMALRGEAYLRQGQKLLGIQFSESEIIPPTQLVASFQELDIGGRKLLLTAYPNAHTNTDLTVLDETTGTLWTGDLLFIERAPSIDGDIKGWLSAIEDLQKLTGIQLAVPGHGPATQDLQGALSNQARYLNLLLHDVRKAIKQGHSMQQAMESAAASESGHWQLFHEVNRRNVNLIYPVLEWE | not soluble
MGQEYYFCRCGRSKKQPYCDGSHSGTGMKPMSFTAEKDEDAYLCQCKHTANAPFCDGTLEHHHHHH | not soluble
MTNEEPLPKKVRLSETDFKVMARDELILRWKQYEAYVQALEGKYTDLNSNDVTGLRESEEKLKQQQQESARRENILVMRLATKEQEMQECTTQIQYLKQVQQPSVAQLRSTMVDPAINLFFLKMKGELEQTKDKLEQAQNELSAWKFTPDR | soluble
MRGSHHHHHHTDPALRAIVISRHVAIPDGELEITAIRAQGAGGQHVNKTSTAIHLRFDIRASSLPEYYKERLLAASHHLISSDGVIVIKAQEYRSQELNREAALARLVAMIKELTTEKKARRPTRPTRASKERRLASKAQKSSVKAMRGKVRSGREGLCGR | soluble
MKDKDLLVLAAKAADDKRAEDMVVLNMQGISPIADYFIICHGNSDKQVQAIAREIKAKAHEFQIDVQRMEGFDEARWVLVDLGDVVAHVFHKDERNHYNLERLWGDVPREDITEELGQLEHHHHHH | not soluble
MGSDKIHHHHHHMWVCGLGVIRFGPAGKPVEFKGDIVKVPEFLRSIGLDALEYEAVRGVRISEAKARRLGEAARENGVILSMHAPYYVNLSSPDDSVVERSIKRLYDSMIASEWMGSYAVVVHPGYYKGLKSREEAVKRVIEALNRLIESLPSWVKTPWIAPETMGKQSQVGSLEETVEICLNTPRCRPCVDWAHLYARAEGKFVTSVDQVVKAIEYIESNLGREAVDPLHTHFSKIEYGKGGERMHHTLREEGYGPDWRIVCRAYKETGINAVVISESPILEKDALLMKSICKGEA | not soluble
PLPATANSHEYLLDNGLKLVVKEDHRSPVVIQQVWYKAGSMDEVNGTTGVAHALEHMMFKGTDSVLAGEFSRKIAAIGGKENAFTSRDYTAYYQQLHQRHLPMAMELESDRMHNLQLTEEAFAKEIQVVMEERRLRTDDQAHSLLYEKMMATAFQTHPYRRPVIGWMNDLENMQVNDARDWYQRWYAPNNAVLVVVGDVDPENVFVLAKKYYGRF | not soluble
MSKQAFQKIYTKITNITKATCSLRATGVGNEELATIDGRLAQVVRIQGEDVTLQVFAGTEGIPTDAEVIFMGKAPSLKVGDQLAGRFFNAYGEPIDGGPQPEGKEVEIGGPSVNPVRRKQPSELIATGIAGIDLNNTLVTGQKIPFFADPDQPFNQVMAMVALRAESDKIILGGMGMTNDDYLFFKNTFSNAGALDRIVSFINTTEDPSVERILVPDMALAAAEYFAVEKHEKVLVLLTDMTNYADALAIVSNRMDQIPSKDSMPGSLYSDLAKIYEKAVQFPDGGSITIIAVTTLSGGDITHAVPDNTGYITEGQLYLRRDSNVGKVIVDPFRSLSRLKQLVIGKKTREDHPQVMNAAVRLFSDAANAQTKMENGFDLTDYDNRALEFANDYSRQLLAIDVNVNTTEMLDTAWELFSKHFKPAEVNIKQQLVDTYWKK | not soluble
AEAAPCETADGTYHIALPEAENPPVLIFLHGHGGEGAATLRNARLVAPLLARGWAVIAPDGQSRAPGRPRSWTFFPGWEGRDEPAFLAQVLGEASARFGLDADRAVLGGFSAGAFMVTYLACATPGAYRAYVPVSGGFWRPQPDRCAGPVHLFQTHGWADPVVPLEGRFLGGGRFQQGDIFAGLELWRQTNGCVEHKPDGFDQTGPFLRRRWQGCSGGSLEFALFPGGHTVPEGWADMMADWVEAL | not soluble
SSAESVSCTVKSPVALQIGDAVSDSSRPGVYITDITLAEPVNIQEISFKNFYTAYLTVRLQRRHGSTASKWVTCLKNYCLMGNPHAEAGSHDYFSIYRQQMSTEPDNVTTVRLILRQPSSEWLSFSIEEINIYPCTKEDSERDVPAWLSTLTPVDEPLDLKGLPDPETVSSSIQQMWALTEIMQASQTAASIGRFDVEGAYDVKLLSYT | not soluble
